Laboratory results: PMC4138882

Target: 3ftt-wt, wild-type trimeric protein from which T3-08 was derived (PDB ID 3FTT), C-terminal (His)6 construct
Experiment: SEC

stoichiometry N: 3 subunits
Substance: 3ftt-wt, wild-type trimeric protein from which T3-08 was derived (PDB ID 3FTT), C-terminal (His)6 construct (natural protein)
